In patent US20120201821A1 (published 2012):
Each block holds one binder with its values, some of them ahead of it.

Columns and labels:
human IL-17RE [1] = molecular target: T1, human IL-17RE (human, UniProt Q8NFR9 24-667); test: binding screen on IL-17RE expressing 293 cells
T1 construct: Retrovirally expressed on 293 cells or HDFn fibroblasts from human IL17RE cDNA; A possible Flag tag on the construct is not described; also called hIL-17RE
T1 sequence: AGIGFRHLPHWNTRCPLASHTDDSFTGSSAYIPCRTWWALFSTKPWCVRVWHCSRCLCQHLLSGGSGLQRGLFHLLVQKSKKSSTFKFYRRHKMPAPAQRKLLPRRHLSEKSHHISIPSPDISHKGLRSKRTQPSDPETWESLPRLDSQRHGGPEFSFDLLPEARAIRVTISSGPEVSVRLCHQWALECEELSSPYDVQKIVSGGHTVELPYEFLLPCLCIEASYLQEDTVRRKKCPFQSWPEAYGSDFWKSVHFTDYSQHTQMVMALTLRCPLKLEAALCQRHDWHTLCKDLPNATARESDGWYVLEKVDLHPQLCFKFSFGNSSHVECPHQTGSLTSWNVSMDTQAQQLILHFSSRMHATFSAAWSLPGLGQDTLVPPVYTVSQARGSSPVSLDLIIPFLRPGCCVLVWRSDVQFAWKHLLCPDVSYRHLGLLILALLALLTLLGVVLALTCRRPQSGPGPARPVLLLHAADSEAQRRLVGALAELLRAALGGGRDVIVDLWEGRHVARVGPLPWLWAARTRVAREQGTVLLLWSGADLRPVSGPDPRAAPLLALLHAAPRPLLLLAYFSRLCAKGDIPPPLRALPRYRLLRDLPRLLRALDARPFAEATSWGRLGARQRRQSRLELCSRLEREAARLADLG

human IL-17RE [2] = molecular target: T1, human IL-17RE; test: radioligand competition binding: 125I-hIL-17C displaced by unlabeled hIL-17C on 293 cells expressing hIL-17RE
Description: (§1) 293 cells expressing the IL-17 receptors were incubated for 2 hours at room temperature with a fixed concentration of iodinated hIL-17C combined with increasing concentrations of unlabeled hIL-17C and including a zero-added, buffer only sample. After the 2-hour incubation, the competition reactions were transferred to a Millipore Multiscreen filter plate and washed 4 times with binding buffer to separate the free from bound iodinated hIL-17C. The filters were counted on a Wallac Wizard 1470 gamma counter and binding data was evaluated using NewLigand software (Genentech), which uses the fitting algorithm of Munson and Rodbard to determine the binding affinity of IL-17C 58.

human IL-17RA = molecular target: T2, human IL-17RA (human, UniProt Q96F46 33-866); test: radioligand competition binding: 125I-hIL-17C displaced by unlabeled hIL-17C on 293 cells expressing hIL-17RA
T2 construct: Retrovirally expressed on 293 cells from human IL17RA cDNA (pMSCV-IRES-GFP); Surface expression was confirmed with an anti-Flag antibody, so the construct may carry a Flag tag; not described; also called hIL-17RA
T2 sequence: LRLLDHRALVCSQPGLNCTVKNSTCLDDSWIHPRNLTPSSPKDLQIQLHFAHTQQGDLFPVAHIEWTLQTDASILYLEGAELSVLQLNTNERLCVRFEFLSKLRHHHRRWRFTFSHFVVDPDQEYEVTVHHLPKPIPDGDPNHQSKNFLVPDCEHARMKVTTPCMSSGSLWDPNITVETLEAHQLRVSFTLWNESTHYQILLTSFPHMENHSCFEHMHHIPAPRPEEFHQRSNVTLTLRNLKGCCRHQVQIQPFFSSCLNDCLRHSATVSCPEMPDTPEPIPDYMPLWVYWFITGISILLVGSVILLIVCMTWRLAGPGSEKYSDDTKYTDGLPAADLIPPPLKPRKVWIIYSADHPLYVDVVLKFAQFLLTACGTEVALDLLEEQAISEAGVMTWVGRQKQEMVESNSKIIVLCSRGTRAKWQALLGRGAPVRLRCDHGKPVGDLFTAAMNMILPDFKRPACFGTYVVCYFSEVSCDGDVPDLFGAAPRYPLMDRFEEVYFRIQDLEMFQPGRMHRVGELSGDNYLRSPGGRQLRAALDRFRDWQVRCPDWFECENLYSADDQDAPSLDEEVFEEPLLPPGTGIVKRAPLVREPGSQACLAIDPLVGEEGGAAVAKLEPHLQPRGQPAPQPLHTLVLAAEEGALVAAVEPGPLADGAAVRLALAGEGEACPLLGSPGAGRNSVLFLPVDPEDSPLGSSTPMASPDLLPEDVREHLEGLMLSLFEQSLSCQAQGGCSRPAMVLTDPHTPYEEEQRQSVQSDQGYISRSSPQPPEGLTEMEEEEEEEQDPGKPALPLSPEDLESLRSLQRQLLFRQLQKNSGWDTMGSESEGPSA
Description: as §1

human IL-17RC = molecular target: T3, human IL-17RC (human, UniProt Q8NAC3 21-791); test: flow cytometry, Flag-tagged hIL-17C on 293 cells expressing the receptor, anti-Flag detection
T3 construct: whole, on cells
T3 sequence (looked up): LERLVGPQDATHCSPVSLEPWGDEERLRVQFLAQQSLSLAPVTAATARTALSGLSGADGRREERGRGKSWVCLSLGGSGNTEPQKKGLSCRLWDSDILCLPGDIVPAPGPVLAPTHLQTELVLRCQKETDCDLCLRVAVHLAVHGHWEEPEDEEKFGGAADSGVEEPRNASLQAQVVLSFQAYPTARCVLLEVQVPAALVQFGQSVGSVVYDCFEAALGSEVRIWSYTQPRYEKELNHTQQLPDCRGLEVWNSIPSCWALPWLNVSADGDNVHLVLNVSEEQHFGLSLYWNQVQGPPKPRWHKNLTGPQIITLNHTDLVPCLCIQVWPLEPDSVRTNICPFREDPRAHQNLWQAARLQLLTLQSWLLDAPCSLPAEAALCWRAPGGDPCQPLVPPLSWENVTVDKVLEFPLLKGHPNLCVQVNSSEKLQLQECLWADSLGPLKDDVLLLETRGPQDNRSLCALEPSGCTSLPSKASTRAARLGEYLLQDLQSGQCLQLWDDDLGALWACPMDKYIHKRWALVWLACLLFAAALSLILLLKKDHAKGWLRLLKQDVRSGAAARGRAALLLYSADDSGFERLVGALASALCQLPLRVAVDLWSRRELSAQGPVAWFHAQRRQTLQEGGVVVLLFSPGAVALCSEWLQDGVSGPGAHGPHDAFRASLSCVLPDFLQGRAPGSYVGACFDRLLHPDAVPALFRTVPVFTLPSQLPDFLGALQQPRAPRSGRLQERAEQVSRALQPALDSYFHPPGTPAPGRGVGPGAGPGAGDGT

human IL-17RB = molecular target: T4, human IL-17RB (human, UniProt Q9NRM6 18-502); test: as above
T4 construct: whole, on cells
T4 sequence (looked up): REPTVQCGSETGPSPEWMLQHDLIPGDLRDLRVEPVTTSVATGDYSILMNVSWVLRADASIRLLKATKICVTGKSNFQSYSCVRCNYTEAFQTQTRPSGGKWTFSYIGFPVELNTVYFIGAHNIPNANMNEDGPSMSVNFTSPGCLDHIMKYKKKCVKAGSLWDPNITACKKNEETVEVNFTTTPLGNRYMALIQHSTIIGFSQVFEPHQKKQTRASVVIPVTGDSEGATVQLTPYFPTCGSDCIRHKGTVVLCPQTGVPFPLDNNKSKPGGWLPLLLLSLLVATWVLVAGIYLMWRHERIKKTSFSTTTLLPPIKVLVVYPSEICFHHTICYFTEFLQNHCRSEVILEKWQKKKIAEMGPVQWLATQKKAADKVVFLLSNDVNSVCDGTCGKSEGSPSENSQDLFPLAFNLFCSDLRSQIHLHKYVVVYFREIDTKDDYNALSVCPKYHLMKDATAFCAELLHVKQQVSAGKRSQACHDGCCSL

human IL-17RD = molecular target: T5, human IL-17RD (human, UniProt Q8NFM7 17-739); test: as above
T5 construct: whole, on cells
T5 sequence (looked up): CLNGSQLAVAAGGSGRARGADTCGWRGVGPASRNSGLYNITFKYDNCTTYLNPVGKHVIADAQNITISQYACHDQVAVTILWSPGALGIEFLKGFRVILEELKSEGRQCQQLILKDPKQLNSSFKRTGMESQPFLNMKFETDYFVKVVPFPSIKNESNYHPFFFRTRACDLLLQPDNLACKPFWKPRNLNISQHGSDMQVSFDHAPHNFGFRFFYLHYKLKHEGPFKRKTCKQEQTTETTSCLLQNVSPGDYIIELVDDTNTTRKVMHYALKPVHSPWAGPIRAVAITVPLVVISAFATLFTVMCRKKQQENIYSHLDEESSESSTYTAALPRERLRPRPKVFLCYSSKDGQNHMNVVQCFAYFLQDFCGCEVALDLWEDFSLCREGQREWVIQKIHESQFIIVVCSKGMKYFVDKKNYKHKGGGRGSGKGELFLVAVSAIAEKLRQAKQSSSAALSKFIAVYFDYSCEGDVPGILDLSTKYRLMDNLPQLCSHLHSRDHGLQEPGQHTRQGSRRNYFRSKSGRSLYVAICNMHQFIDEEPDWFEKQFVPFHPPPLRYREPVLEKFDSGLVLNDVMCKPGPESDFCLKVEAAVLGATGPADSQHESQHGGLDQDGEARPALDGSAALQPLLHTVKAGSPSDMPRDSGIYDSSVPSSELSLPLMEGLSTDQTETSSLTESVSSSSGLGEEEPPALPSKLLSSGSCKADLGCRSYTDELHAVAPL

- binding result (human IL-17RE [1]): no binding
B1: IL-17B (ligand, UniProt Q9UHF5 21-180, looked up)
chain: QPRSPKSKRKGQGRPGPLAPGPHQVPLDLVSRMKPYARMEEYERNIEEMVAQLRNSSELAQRKCEVNLQLWMSNKRSLSPWGYSINHDPSRIPVDLPEARCLCLGCVNPFTMQEDRSMVSVPVFSQVPVRRRLCPPPPRTGPCRQRAVMETIAVGCTCIF

- Kd (human IL-17RE [2]): 0.35 nM
- Kd (human IL-17RA): 1400 nM
- binding result (human IL-17RC): no binding
- binding result (human IL-17RB): no binding
- binding result (human IL-17RD): no binding
B2: Flag-tagged mature human IL-17C (His-19 to Val-197) with Gly-77 and Arg-78 substituted to Arg and Thr (ligand)
chain: HHDPSLRGHPHSHGTPHCYSAEELPLGQAPPHLLARGAKWGQALPVALVSSLEAASHRRTHERPSATTQCPVLRPEEVLEADTHQRSISPWRYRVDTDEDRYPQKLAFAECLCRGCIDARTGRETAALNSVRLLQSLLVLRRRPCSRDGSGLPTPGAFAFHTEFIHVPVGCTCVLPRSV
notes: Made in CHO cells as an N-terminal Flag fusion; For the radioligand assay the protein was iodinated (Iodogen); also called hIL-17C; FLAG-tagged hIL-17C; not shown: N-terminal Flag tag

- binding result (human IL-17RE [1]): no binding
B3: IL-17E (ligand, UniProt Q9H293 33-177, looked up)
chain: YSHWPSCCPSKGQDTSEELLRWSTVPVPPLEPARPNRHPESCRASEDGPLNSRAISPWRYELDRDLNRLPQDLYHARCLCPHCVSLQTGSHMDPRGNSELLYHNQTVFYRRPCHGEKGTHKGYCLERRLYRVSLACVCVRPRVMG
notes: also called IL-25

- binding result (human IL-17RE [1]): no binding
B4: IL-17F (ligand, UniProt Q96PD4 31-163, looked up)
chain: RKIPKVGHTFFQKPESCPPVPGGSMKLDIGIINENQRVSMSRNIESRSTSPWNYTVTWDPNRYPSEVVQAQCRNLGCINAQGKEDISMNSVPIQQETLVVRRKHQGCSVSFQLEKVLVTVGCTCVTPVIHHVQ
